Data on one molecule can be found in patent CN111793131A.

Test [1] concerns the target PF4全抗原 (血小板因子4, platelet factor 4) (Homo sapiens (Human)) (UniProt P02776). The test can be described thus: chemiluminescent ELISA, antigen coated at 2ug/ml, 10ul antibody, HRP goat anti-mouse IgG, luminol (blank 3280).
Test [2] has the same target. The test can be described thus: chemiluminescent ELISA, antigen coated at 2ug/ml, 2ul antibody, HRP goat anti-mouse IgG, luminol (blank 3280).
For test [3] the target is unchanged. Nature of the test: chemiluminescent ELISA, antigen coated at 2ug/ml, 50ul antibody, HRP goat anti-mouse IgG, luminol (blank 3280). (In general: ELISA stands for enzyme-linked immunosorbent assay.)

Sequence of UniProt P02776 (P02776 32-101 limits assumed): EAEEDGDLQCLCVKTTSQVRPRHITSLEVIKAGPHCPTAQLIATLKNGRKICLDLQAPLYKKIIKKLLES

B1: 单克隆抗体AntiPF4_N (杂交瘤来源, 实施例1) (antibody, V domains shown)
VH: EVKLEESGGGLVQPGGSMKLSCVASGFTFSNYWMNWVRQSPEKGLEWVAEIRLKSNNYATHYAESVKGRFTISRDDSKSSVYLQMNNLRAEDTGIYYCTGYDFDYWGQGTTLTVSS
VL: DVVMTQTPLSLPVSLGDQASISCRSSQSLVHNYGNTFLHWYLQKPGQSPKLLIYSTSNLFSGVPDRFSGSGSGTDFTLKISRVEAEDLGVYFCSQSTHVPPTFGGGTKLEI
For the molecule B1, the 发光值 in test [1] is 256000; in test [2] it was 63000; in test [3], 994000.
